T1: GDF15 (Homo sapiens (Human), UniProt Q99988 30-308)
T1 sequence: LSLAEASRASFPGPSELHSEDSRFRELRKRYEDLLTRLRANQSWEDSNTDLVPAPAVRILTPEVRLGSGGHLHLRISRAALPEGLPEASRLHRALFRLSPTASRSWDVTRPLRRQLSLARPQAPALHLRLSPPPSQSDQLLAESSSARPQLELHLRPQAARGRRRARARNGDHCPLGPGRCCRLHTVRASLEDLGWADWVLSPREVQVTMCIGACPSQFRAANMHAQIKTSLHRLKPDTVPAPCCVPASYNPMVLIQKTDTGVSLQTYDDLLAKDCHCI

T2: GDNF (UniProt P39905 78-211)
T2 sequence (looked up): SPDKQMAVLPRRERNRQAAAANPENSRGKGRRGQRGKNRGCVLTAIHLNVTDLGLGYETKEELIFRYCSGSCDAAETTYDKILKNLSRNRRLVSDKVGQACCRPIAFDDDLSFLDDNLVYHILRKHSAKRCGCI

T3: GDF10 (UniProt P55107 369-478)
T3 sequence (looked up): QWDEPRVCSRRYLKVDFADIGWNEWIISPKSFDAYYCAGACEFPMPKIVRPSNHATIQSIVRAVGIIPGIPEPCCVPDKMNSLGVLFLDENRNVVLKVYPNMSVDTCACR

T4: Human Activin A Fc (human, UniProt P08476 311-426)
T4 sequence (looked up): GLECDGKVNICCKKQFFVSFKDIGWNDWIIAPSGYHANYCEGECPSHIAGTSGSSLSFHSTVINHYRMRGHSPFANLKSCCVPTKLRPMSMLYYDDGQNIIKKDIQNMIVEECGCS

T5: Human Activin B (human, UniProt P09529 293-407)
T5 construct: Also used for the Activin B ligand of the ActRIIB/SMAD reporter assay, where the species is not restated
T5 sequence (looked up): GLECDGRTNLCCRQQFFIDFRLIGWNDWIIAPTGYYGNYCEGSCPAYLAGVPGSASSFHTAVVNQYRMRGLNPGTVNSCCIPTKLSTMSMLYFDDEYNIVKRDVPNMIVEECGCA

T6: Human BMP9 (human, UniProt Q9UK05 320-429)
T6 sequence (looked up): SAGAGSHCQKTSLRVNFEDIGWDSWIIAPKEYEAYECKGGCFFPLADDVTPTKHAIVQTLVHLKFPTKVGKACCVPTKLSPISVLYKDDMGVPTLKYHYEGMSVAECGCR

T7: Human BMP10 (human, UniProt O95393 317-424)
T7 sequence (looked up): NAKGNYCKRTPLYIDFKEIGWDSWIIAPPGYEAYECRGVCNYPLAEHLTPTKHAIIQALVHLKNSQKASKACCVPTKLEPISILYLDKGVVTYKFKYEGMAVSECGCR

T8: Cyno GDF15 Fc (cyno, UniProt G7PWZ3 193-308)
T8 construct: also called cyno GDF15-Fc fusion
T8 sequence: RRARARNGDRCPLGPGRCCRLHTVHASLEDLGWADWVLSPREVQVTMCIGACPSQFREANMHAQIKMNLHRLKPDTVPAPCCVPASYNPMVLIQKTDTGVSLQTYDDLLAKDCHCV

T9: Mouse GDF15 Fc (mouse, UniProt Q9Z0J7 189-303, limits assumed)
T9 construct: also called mouse GDF15Fc fusion
T9 sequence (looked up): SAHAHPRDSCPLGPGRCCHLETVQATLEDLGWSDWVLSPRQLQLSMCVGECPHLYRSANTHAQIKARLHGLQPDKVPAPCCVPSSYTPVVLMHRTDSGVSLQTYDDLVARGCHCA

T10: Rat GDF-15 Fc (rat, UniProt Q9Z0J6 189-303, limits assumed)
T10 sequence (looked up): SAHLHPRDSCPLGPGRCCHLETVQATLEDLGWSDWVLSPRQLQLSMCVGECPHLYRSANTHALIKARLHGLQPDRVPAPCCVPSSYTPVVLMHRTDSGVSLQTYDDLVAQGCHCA


Assays:
GDF15 = biological target: T1, GDF15; experiment: cell-based or functional assay
GDNF = biological target: T2, GDNF; experiment: Octet BLI, IgG on tip, avid
GDF8 = GDF8 (UniProt O14793 267-375); experiment: Octet BLI, IgG on tip, avid
GDF10 = biological target: T3, GDF10; experiment: Octet BLI, IgG on tip, avid
GDF11 = biological target: T11, GDF11 (UniProt O95390 299-407); experiment: Octet BLI, IgG on tip, avid
T11 construct: Also the GDF-11 ligand of the ActRIIB/SMAD reporter assay
T11 sequence (O95390 299-407 limits assumed): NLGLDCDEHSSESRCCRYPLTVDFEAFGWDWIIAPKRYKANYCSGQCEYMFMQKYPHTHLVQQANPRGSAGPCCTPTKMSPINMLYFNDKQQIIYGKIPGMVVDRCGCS

Human Activin A Fc = biological target: T4, Human Activin A Fc; experiment: Octet BLI, IgG on tip, avid
Human Activin B = biological target: T5, Human Activin B; experiment: Octet BLI, IgG on tip, avid
Human BMP9 = biological target: T6, Human BMP9; experiment: Octet BLI, IgG on tip, avid
Human BMP10 = biological target: T7, Human BMP10; experiment: Octet BLI, IgG on tip, avid
Cyno GDF15 Fc = biological target: T8, Cyno GDF15 Fc; experiment: Octet BLI, IgG on AHC tip, avid
Procedure: (§1) Briefly, ForteBio affinity measurements were performed by loading IgGs on-line onto AHC sensors. Sensors were equilibrated off-line in assay buffer for 30 min and then monitored on-line for 60 seconds for baseline establishment. Sensors with loaded IgGs were exposed to 100 nM antigen for 3 minutes, and afterwards were transferred to assay buffer for 3 min for off-rate measurement. All kinetics were analyzed using the 1:1 binding model.

Mouse GDF15 Fc = biological target: T9, Mouse GDF15 Fc; experiment: Octet BLI, IgG on AHC tip, avid
Procedure: as §1

Rat GDF-15 Fc = biological target: T10, Rat GDF-15 Fc; experiment: Octet BLI, IgG on AHC tip, avid
Procedure: as §1

| Binder | GDF15 - GFRAL RET pERK IC50 (pM) (GDF15) | GDF15 - GFRAL-RET Luciferase IC50 (pM) (GDF15) | binding result (GDNF) | binding result (GDF8) | binding result (GDF10) | binding result (GDF11) | binding result (Human Activin A Fc) | binding result (Human Activin B) | binding result (Human BMP9) | binding result (Human BMP10) | Kd (Cyno GDF15 Fc) [nM] | Kd (Mouse GDF15 Fc) [nM] | Kd (Rat GDF-15 Fc) [nM] | Kd (GDNF) [nM] | Kd (GDF10) [nM] |
| --- | --- | --- | --- | --- | --- | --- | --- | --- | --- | --- | --- | --- | --- | --- | --- |
| Clone E IgG (antibody, V domains shown, IgG format) VH: QVQLVQSGAEVKKPGASVKVSCKASGYTFTSYGINWVRQAPGQGLEWMGWITAYSGDTNYAQKLQGRVTMTTDTSTSTAYMELRSLRSDDTAVYYCARGPGQYADVDVWGQGTMVTVSS VL: DIQMTQSPSSVSASVGDRVTITCRASQGISSWLAWYQQKPGKAPKLLIYAASSLQSGVPSRFSGSGSGTDFTLTISSLQPEDFATYYCQQANSFPITFGGGTKVEIKR | 35 | 190 | no binding (tested: 100 nM) | no binding (tested: 100 nM) | no binding (tested: 100 nM) | no binding (tested: 100 nM) | no binding (tested: 100 nM) | no binding (tested: 100 nM) | no binding (tested: 100 nM) | no binding (tested: 100 nM) | 0.178 | 0.194 | 0.451 | – | – |
| Clone K IgG (antibody, V domains shown, IgG format) VH: QVQLVQSGAEVKKPGASVKVSCKASGYTFTNEGISWVRQAPGQGLEWMGWISAYTADTFYAQKLQGRVTMTTDTSTSTAYMELRSLRSDDTAVYYCARTRHDTSGLRFDYWGQGTLVTVSS VL: DIQMTQSPSSVSASVGDRVTITCRASQGIDSWLAWYQQKPGKAPKLLIYAASSLQSGVPSRFSGSGSGTDFTLTISSLQPEDFATYYCQQVHSFPITFGGGTKVEIKR | 187 | 813 | – | no binding (tested: 100 nM) | no binding (tested: 100 nM) | no binding (tested: 100 nM) | no binding (tested: 100 nM) | no binding (tested: 100 nM) | no binding (tested: 100 nM) | no binding (tested: 100 nM) | – | – | – | 333 | – |
| Clone I IgG (antibody, V domains shown, IgG format) VH: QVQLVQSGAEVKKPGASVKVSCKASGYTFTDEGINWVRQAPGQGLEWMGWITAYSGDTVYAQKLQGRVTMTTDTSTSTAYMELRSLRSDDTAVYYCARGPGQYADVDVWGQGTMVTVSS VL: DIQMTQSPSSVSASVGDRVTITCRASQGISSWLAWYQQKPGKAPKLLIYAASSLQSGVPSRFSGSGSGTDFTLTISSLQPEDFATYYCQQANSFPITFGGGTKVEIKR | 34.5 | 79.3 | – | no binding (tested: 100 nM) | no binding (tested: 100 nM) | no binding (tested: 100 nM) | no binding (tested: 100 nM) | no binding (tested: 100 nM) | no binding (tested: 100 nM) | no binding (tested: 100 nM) | 3.04 | 0.152 | 1.18 | – | – |
| Clone H IgG (antibody, V domains shown, IgG format) VH: QVQLVQSGAEVKKPGSSVKVSCKASGGTFSSYYISWVRQAPGQGLEWMGGIAPISGTASYAQKFQGRVTITADESTSTAYMELSSLRSEDTAVYYCARGLAYDGYFDLWGRGTLVTVSS VL: not shown | 254 | 200 | no binding (tested: 100 nM) | no binding (tested: 100 nM) | no binding (tested: 100 nM) | no binding (tested: 100 nM) | no binding (tested: 100 nM) | no binding (tested: 100 nM) | no binding (tested: 100 nM) | no binding (tested: 100 nM) | – | – | – | – | – |

Continued, values first:

| GDF15 - GFRAL RET pERK IC50 (pM) (GDF15) | GDF15 - GFRAL-RET Luciferase IC50 (pM) (GDF15) | binding result (GDNF) | binding result (GDF8) | binding result (GDF10) | binding result (GDF11) | binding result (Human Activin A Fc) | binding result (Human Activin B) | binding result (Human BMP9) | binding result (Human BMP10) | Kd (Cyno GDF15 Fc) [nM] | Kd (Mouse GDF15 Fc) [nM] | Kd (Rat GDF-15 Fc) [nM] | Kd (GDNF) [nM] | Kd (GDF10) [nM] | Binder |
| --- | --- | --- | --- | --- | --- | --- | --- | --- | --- | --- | --- | --- | --- | --- | --- |
| – | 150 | no binding (tested: 100 nM) | no binding (tested: 100 nM) | – | no binding (tested: 100 nM) | no binding (tested: 100 nM) | no binding (tested: 100 nM) | no binding (tested: 100 nM) | no binding (tested: 100 nM) | – | – | – | – | 26.7 | Clone O IgG (antibody, V domains shown, IgG format) VH: QVQLVQSGAEVKKPGATVKVSCKASGYTFDSLGMSWVRQAPGQGLEWMGYISTYSGDTVYAQKLQGRVTMTTDTSTSTAYMELRSLRSDDTAVYYCARESGQQVSALDPWGQGTLVTVSS VL: DIQMTQSPSSVSASVGDRVTITCRASQGISRWLAWYQQKPGKAPKLLIYAASSLQSGVPSRFSGSGSGTDFTLTISSLQPEDFATYYCQQGASFPLTFGGGTKVEIKR |
| 13.5 | 274 | – | no binding (tested: 100 nM) | no binding (tested: 100 nM) | no binding (tested: 100 nM) | no binding (tested: 100 nM) | no binding (tested: 100 nM) | no binding (tested: 100 nM) | no binding (tested: 100 nM) | – | – | – | 229 | – | Clone L IgG (antibody, V domains shown, IgG format) VH: QVQLVQSGAEVKKPGASVKVSCKASGYTFASYDIIWVRQAPGQGLEWMGWISALSGDTVYAQKLQGRVTMTTDTSTSTAYMELRSLRSDDTAVYYCARTRHDTSGIRFDYWGQGTLVTVSS VL: DIQMTQSPSSVSASVGDRVTITCRASQGIDSWLAWYQQKPGKAPKLLIYAASSLQSGVPSRFSGSGSGTDFTLTISSLQPEDFATYYCQQVHSFPITFGGGTKVEIKR |
| 88.7 | – | – | no binding (tested: 100 nM) | no binding (tested: 100 nM) | no binding (tested: 100 nM) | no binding (tested: 100 nM) | no binding (tested: 100 nM) | no binding (tested: 100 nM) | no binding (tested: 100 nM) | – | – | – | 31.4 | – | Clone M IgG (antibody, V domains shown, IgG format) VH: QVQLVQSGAEVKKPGASVKVSCKASGYTFDSYGINWVRQAPGQGLEWMGWISAYSGDTAYAQELQGRVTMTTDTSTSTAYMELRSLRSDDTAVYYCVRDTQYGGSPYWGQGTLVTVSS VL: not shown |

— patent US20250019427A1 (BYOMASS, published 2025)
